Like-named read-outs stand apart in the source and are kept apart here.
T1: human CD39 recombinant antigen (UniProt P49961 38-478)
T1 chain: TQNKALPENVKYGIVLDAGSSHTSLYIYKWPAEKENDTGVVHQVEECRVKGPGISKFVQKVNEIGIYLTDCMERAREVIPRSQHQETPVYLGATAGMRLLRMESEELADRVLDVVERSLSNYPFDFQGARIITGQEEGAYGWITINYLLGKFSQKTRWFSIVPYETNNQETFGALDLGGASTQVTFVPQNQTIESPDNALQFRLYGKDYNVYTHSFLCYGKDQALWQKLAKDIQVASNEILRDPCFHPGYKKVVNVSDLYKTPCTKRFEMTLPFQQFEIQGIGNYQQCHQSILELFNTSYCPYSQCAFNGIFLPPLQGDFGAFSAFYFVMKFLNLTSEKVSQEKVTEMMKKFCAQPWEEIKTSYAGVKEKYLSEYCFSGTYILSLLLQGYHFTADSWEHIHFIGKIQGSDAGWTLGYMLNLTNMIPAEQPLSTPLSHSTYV


Assays:
[1] = target: T1, human CD39 recombinant antigen; test: SPR
[2] = target: T1, human CD39 recombinant antigen; test: SPR

Row | Binder | Kd [1] [nM] | Kd [2] [nM]
1 | 23-7m1 (antibody, V domains shown) VH: EVQLQQSGPELEKPGASVKISCKVSGYSFTDYNLNWVKQYNGKNLEWIGNIDPYSGGTRYNQKFKGKATLTIDQSSSTAYMHLKSLTSEDSAVYYCGLYGYDDDANYFDDWGQGTTLTVSS VL: EIVLTQSPAIMSPSPGEKVTIACSASSSVSYMHWFQQKPGTSPKLWIYATSNLASGVPARFSGSGSGTSYSLTISRMEAEDVATYYCQQRSSYPLTFGAGTKLELK | 0.573 | –
2 | HuP4_41_sc (antibody, V domains shown) VH: QVQLVESGGGVVQPGGSLRLSCVVSGFTLTNYGVHWVRQAPGKGLEWLAVILRRGSTDYNAAFMSRLAISKDNSKNTVYLELNSLRLDDTAVYYCAKTAVVAGDYFDYWGQGTTVTVSS VL: DIVMTQSQKFMSTSVGDRVSITCKASQNVGTNVAWYQQKPGQSPKLLIYSASYRYSGVPDRFTGSGSGTDFTLTISNMQSEDLADYFCQQYNSYPLTFGGGTKLEIK | – | 0.106
3 | P4_sc (Fc fusion) VH: QVQLKESGPSLVQPSQSLSITCTVSGFSLTNYGVHWVRQSPGKGLEWLGVILRRGSTDYNAAFMSRLSITKDNSKSQVFFKMNSLQADDTAIYYCAKTAVVAGDYFDYWGQGTTLTVSS VL: DIVMTQSHKFMSTSVGDRVSVTCKASQNVGTNVAWYQQKPGQSPKALIYSASYRYSGVPDRFTGSGSGTDFTLTISNVQSEDLAEYFCQQYNSYPLTFGTGTKLEIK | – | 0.307
4 | HuP4_11_sc (antibody, V domains shown) VH: EVQLVESGGALVQPGRSLRLSCAVSGFTLSNYGVHWVRQAPGKGLEWVAVILRRGSTDYNAAFMSRFTISKDNSKNTVYLQMNSLRADDTAVYYCAKTAVVAGDYFDYWGQGTTVTVSS VL: DIVMTQSQKFMSTSVGDRVSITCKASQNVGTNVAWYQQKPGQSPKLLIYSASYRYSGVPDRFTGSGSGTDFTLTISNMQSEDLADYFCQQYNSYPLTFGGGTKLEIK | – | 0.377
5 | HuP4_51_sc (antibody, V domains shown) VH: QVQLVESGGGVVQPGGSLRLSCVVSGFSLTNYGVHWVRQAPGKGLEWLGVILRRGSTDYNAAFMSRLAISKDNSKNTVYLELNSLRLDDTAVYYCAKTAVVAGDYFDYWGQGTTVTVSS VL: DIVMTQSQKFMSTSVGDRVSITCKASQNVGTNVAWYQQKPGQSPKLLIYSASYRYSGVPDRFTGSGSGTDFTLTISNMQSEDLADYFCQQYNSYPLTFGGGTKLEIK | – | 0.369
6 | I67_sc (antibody, V domains shown) VH: DVQLQESGPSLVQPSQSLSINCTVSGFSLSSYGVHWVRQSPGKGLEWLGVIWRRGSTDYNAAFMSRLSITKDNSKSQVFFKMNRLQADDTATYYCAKGISTATSWFAYWGQGTLVTVSA VL: DIVMTQSHKFMSTSVGDRVSVTCKASQNVGTNVAWYQQKPGQSPKALIYSASYRYSGVPDRFTGSGSGTDFTLTISNVQSEDLAEYFCQQYNSYPLTFGAGTKLELK | – | 1.65
7 | T86_sc (antibody, V domains shown) VH: QIQLVQSGPELKKPGETVKISCEASGYTFINYGMNWVKQAPGKGLKWMGWINTYTGEPTYADDFKGRFAFSLETSANTAYLQINNLKNEDTATYFCARKGYYGYPNYYAMDYWGQGTSVTVSS VL: DIVMTQSQKFMSTSVGDRVSITCKASQNVGTAVAWYQQKPGQSPKLLIYSASNRYTGVPDRFTGSGSGTDFTLTISNMQSEDLADYFCQQYSSYPITFGTGTKLEIK | – | 4.28
8 | 6-3m1 (antibody, V domains shown) VH: QVQLKQSGAELVKPGASVKLSCTASGFSIKDTYVHWVKQRPEQGLEWIGKIDPANVNTKFDPKFQGKATITADTSSNTAYLQLSSLTSEDTAVYYCALYGYDDDAYYFDYWGQGTTLTVSS VL: not shown | 0.399 | –

Results, then the binder that gave them:

Row | Kd [1] [nM] | Kd [2] [nM] | Binder
9 | 9.83 | – | T-31414h4 (antibody, V domains shown) VH: QVQLVQSGAEVKKPGASVKVSCKASGYTFKSYEMHWVRQAPGQGLEWMGRINPSVGSTWYAQKFQGRVIMIRDTSTSTVYMELSSLRSEDTAVYYCARGKREGGTEYLRNWGQGTLVTVSS VL: EIVLIQSPGILSLSPGERATLSCRASQSVSSSYLAWYQQKPGQAPRLLIYGASSRATGIPDRFSGSGSGTDFTLTISRLEPEDFAVYYCQQYHSYITFGGGTKVEIK
10 | – | 2.22 | Tre_291_sc (antibody, V domains shown) VH: QVQLKQSGPGLVQPSQSLSITCTVSGFSLTSYGVHWVRQSPGKGLEWLGVIWRRGSTDYNAAFMSRLSITKDTSKSQVFFKMNSLQTDDTAIYYCAGVRGDAMDYWGQGTSVTVSS VL: DIVMTQSHKSMSTSVGDRVSVTCKASQNVGTNVAWYQQKPGQSPKALIYSASYRYSGVPDRFTGSGSGTDFTLTISNVQSEDLAEYFCQQYNSYPLTFGGGTKLEIK
11 | – | 4.75 | mAnE67_sc (antibody, V domains shown) VH: EVQLVESGGGLVKPGGSRKLSCAASGFTFSDYGMHWVRQAPEKGLEWVAYISSGSSIIYYADTVKGRFTISRDNAKNTLFLQMTGLRSEDTAMYYCARKDYPYAMDYWGQGTSLAVSS VL: DIVMTQSHKSMSTSVGDRVSVTCKASQNVGTNVAWYQQKPGQSPKALIYSASYRYSGVPDRFTGSGSGTDFTLTISNVQSEDLAEYFCQQYNSYPLTFGGGTKLEIK
12 | 0.956 | – | I-394h4 (antibody, V domains shown) VH: EVQLQQSGPELVKPGASVKMSCKASGYTFTDYNMHWVKQSHGRTLEWIGYIVPLNGGSTFNQKFKGRATLTVNTSSRTAYMELRSLTSEDSAAYYCARGGTRFAYWGQGTLVTVSA VL: not shown
13 | – | 0.396 | HuP4_IB_sc (Fc fusion) VH: QVQLLESGPELVKPSATLSITCTVSGFSLTNYGVHWIRQAPGKGLEWLGVILRRGSTDYNAAFMSRFTISKDNSKNQVYFKLRSVTAEDTAVYYCAKTAVVAGDYFDYWGQGTMVTVSS VL: DIQMTQSHSTLSLSVGDRVTITCKASQNVGTNVAWYQQKPGQPPKALIYSASYRYSGVPSRFSGSGSGTDFTLTISSVQAEDVAVYYCQQYNSYPLTFGPGTKLEIK

Reference: patent publication US20250215105A1 (published 2025)
